Reference: patent publication US20220227882A1 (TRUSTEES OF TUFTS COLLEGE, published 2022)

T1: Recombinant human ADAM9 (R&D Systems, 939-AD-020) (human, UniProt Q13443 29-697)
T1 sequence (looked up): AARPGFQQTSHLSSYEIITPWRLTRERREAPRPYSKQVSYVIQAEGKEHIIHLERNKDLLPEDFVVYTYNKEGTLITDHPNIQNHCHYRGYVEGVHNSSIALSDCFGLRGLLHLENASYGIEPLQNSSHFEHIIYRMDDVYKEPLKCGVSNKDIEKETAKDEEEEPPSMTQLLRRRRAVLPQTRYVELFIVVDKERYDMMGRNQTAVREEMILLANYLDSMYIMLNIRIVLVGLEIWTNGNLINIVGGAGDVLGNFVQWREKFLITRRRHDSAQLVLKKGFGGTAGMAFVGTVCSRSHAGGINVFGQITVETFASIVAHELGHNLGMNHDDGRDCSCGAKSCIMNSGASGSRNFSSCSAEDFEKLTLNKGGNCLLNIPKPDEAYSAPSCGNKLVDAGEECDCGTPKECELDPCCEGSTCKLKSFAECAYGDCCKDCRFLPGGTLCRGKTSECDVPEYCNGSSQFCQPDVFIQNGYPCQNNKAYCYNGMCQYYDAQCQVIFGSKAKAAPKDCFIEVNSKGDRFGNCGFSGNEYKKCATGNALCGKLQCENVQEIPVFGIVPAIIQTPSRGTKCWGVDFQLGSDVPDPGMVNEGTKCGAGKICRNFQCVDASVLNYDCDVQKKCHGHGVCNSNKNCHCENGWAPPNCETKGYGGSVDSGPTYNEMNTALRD

T2: Full-length human ADAM8 on cells (HEK293-ADAM8 stable or transfected cells); also endogenous ADAM8 of breast … (human, UniProt P78325 17-824)
T2 construct: On cells the proform, the active form and the remnant form can all be present; also called native ADAM8; HEK293-A8
T2 sequence: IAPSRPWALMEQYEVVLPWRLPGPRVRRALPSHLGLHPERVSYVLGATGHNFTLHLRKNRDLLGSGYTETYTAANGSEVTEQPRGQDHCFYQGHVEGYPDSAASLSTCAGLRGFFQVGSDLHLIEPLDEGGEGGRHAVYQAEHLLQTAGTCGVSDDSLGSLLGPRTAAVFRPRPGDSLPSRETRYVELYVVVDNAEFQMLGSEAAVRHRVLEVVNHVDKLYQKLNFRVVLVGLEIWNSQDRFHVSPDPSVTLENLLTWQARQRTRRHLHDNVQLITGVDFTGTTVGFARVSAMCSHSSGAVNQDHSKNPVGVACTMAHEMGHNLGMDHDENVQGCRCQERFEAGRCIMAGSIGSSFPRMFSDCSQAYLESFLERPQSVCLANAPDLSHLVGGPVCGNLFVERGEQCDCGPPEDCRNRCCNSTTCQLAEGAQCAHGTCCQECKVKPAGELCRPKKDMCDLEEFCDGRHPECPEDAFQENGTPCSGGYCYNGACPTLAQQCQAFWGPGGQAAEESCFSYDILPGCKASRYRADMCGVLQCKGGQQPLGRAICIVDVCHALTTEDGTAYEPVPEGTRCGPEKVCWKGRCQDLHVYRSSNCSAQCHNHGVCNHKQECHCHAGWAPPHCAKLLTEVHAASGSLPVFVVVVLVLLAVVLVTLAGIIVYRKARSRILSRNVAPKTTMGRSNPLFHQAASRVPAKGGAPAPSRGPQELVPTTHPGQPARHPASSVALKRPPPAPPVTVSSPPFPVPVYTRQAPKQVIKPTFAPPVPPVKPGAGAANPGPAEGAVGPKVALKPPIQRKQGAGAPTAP

T3: Recombinant human ADAM15 (Sino Biological, 10517-H08H) (human, UniProt Q13444 18-696)
T3 sequence (looked up): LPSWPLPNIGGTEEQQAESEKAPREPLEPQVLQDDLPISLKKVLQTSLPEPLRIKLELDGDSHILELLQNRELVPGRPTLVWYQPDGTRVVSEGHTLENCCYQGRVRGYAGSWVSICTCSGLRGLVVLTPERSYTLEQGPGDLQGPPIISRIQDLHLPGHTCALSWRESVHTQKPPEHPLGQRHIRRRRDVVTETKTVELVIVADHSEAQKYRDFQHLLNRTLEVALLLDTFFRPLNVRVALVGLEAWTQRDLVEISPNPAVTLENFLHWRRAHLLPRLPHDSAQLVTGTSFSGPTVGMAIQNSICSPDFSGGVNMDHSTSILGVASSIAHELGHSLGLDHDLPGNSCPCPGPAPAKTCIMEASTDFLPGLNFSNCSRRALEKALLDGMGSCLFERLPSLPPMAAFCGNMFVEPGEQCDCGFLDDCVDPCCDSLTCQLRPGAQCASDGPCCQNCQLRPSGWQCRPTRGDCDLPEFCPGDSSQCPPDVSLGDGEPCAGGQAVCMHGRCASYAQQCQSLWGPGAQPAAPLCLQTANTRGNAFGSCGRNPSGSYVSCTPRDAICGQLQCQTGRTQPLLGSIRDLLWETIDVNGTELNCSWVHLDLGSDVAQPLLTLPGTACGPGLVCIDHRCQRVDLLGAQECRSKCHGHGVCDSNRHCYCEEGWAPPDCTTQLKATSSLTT

B1: ADP13 (antibody, IgG1, V domains shown)
VH: EVQLQQSGPEMVKPGTSVKISCKASGYTFTDYYINWVKQSHGKSLEWIGDISPNIGGATYNPKFKGKAILTVDKSARTAYMELRSLTSEDSAVYCCTRGGSSYPYFYAMDYWGQGTSVTVSS
VL: DIVMSQSPSSLAVSVGEKVTMSCKSSQSLLYSSNQKKYLAWYQQKPGQSPKLLIYWASTRESGVPDRFTGSGSGTDFTLTISSVKAEDLAVYYCQQFYSYPYTFGGGTKLEINR
notes: also called mADP13; mouse ADP13
B2: ADP2 (antibody, V domains shown)
VH: EVKLVESGGGLVQPGGSLSLSCAASGFSFPDYYMSWVRQPPGKALEWLGFIRDSANGYTTEYIASVKGRFTFSRDNSQSILYLQMNALRAEDSATYYCARYSRYYGMDYWGQGTSVTVSS
VL: SIVMTQTPKILLVSAGDRVTITCKASQTVNYDVAWYQQKPGQSPKPVIYFASNRYTGVPDRFTGSGFGTDFTFTISTVQAEDLAVYFCQQDYSAPWTFGGGTKLEIK
notes: also called mADP2; mouse ADP2
B3: ADP3 (antibody, IgG1, V domains shown)
VH: EVKLEESGGGLVQPGGSMKLSCAASGFTFSDAWMDWVRQSPEKGLEWVAEIRGKVNNLATYYVESVKGRFTISRDDSKSSVYLQMNSLRAEDTGIYYCLGRYDATYAMDYWGQGTSVTVSS
VL: DVVMTQTPLSLPVSLGDQASISCRSSQSLVHSDGNTYLHWYLQKPGQSPKLLIYKLSNRFSGVPDRFSGSGSGTDFTLKISRVEAEDLGVYFCSQSTHVPWTFGGGTKLEIK

Legend:
[1] = target: T1, Recombinant human ADAM9 (R&D Systems, …); assay: ELISA, coated recombinant ADAM9
[2] = target: T2, Full-length human ADAM8 on cells …; assay: FACS, HEK293-ADAM8 cells, antibody 1 µg/ml
[3] = target: T2, Full-length human ADAM8 on cells …; assay: cell-based or functional assay
[4] = target: T3, Recombinant human ADAM15 (Sino …); assay: ELISA, coated recombinant ADAM15

Row | Binder | OD 450nm [1] [OD450nm] | binding result [1] | MFI [2] [MFI] | % inhibition of CD23 cleavage (MP activity), HEK293 cells co-expressing CD23 and ADAM8, antibody 20 µg/ml [3] [% inhibition] | % inhibition of transendothelial migration of MDA-MB-231 cells through HUVEC, antibody 20 µg/ml [3] [% inhibition] | OD 450nm [4] [OD450nm] | binding result [4]
1 | B1 | 0.12 | no binding (tested: 1 µg/ml) | 21.1 | 79.1 | 54.5 | 0.09 | no binding (tested: 1 µg/ml)
2 | B2 | 0.07 | no binding (tested: 1 µg/ml) | 156 | 62.6 | 37.6 | 0.16 | –
3 | B3 | 0.15 | – | 96.5 | 79.9 | 44.5 | 0.17 | no binding (tested: 1 µg/ml)
